{"source": "patent US11229713B2", "about": "“Methods and compositions for 18F-radiolabeling of biologics” (BRISTOL-MYERS SQUIBB COMPANY, priority 2014, dated 2022)", "molecules": {"B1": {"name": "^18F-radiolabeled E01-4PEG-DBCO: E01 anti-PD-L1 Adnectin (SEQ ID NO: 1) linked via maleimide-PEG4-DBCO to [18F]-FPPEGA by click reaction (conjugate)", "chain": "GVSDVPRDLEVVAATPTSLLISWRAQLSPSFYYRITYGETGGNSPVQEFTVPNDVMTATISGLKPGVDYTITVYAVTTHGVYFYSPISINYRTPC", "modifications": "maleimide-PEG4-DBCO, 18F-FPPEGA label; Synthetic FBS protein, E01 Adnectin containing the C-terminal amino acids PC"}, "B2": {"name": "E01 Adnectin: FBS protein, anti-PD-L1 Adnectin, SEQ ID NO: 1, cold (unlabeled) (protein)", "chain": "B1 chain", "modifications": "Synthetic FBS protein, E01 Adnectin containing the C-terminal amino acids PC"}, "B3": {"name": "^18F-radiolabeled A02: ^18F-radiolabeled PD-L1 Adnectin A02 (SEQ ID NO: 2) produced as described in Example 9 (conjugate)", "chain": "EVVAATPTSLLISWSYDGPIDRYYRITYGETGGNSPVQEFTVPPDQKTATISGLKPGVDYTITVYAVRLEEAHYNREFPISINYRTPC", "modifications": "PEG4-DBCO linker, 18F-FPPEGA label; Synthetic 18F-radiolabeled PD-L1 Adnectin, A02"}}, "key": {"[1]": {"experiment": "Stability of reconstituted [18F]-FPPEGA in 1×PBS buffer", "assay_type": "physicochemical", "details": "100% 1×PBS buffer, 37° C.", "description": "An aqueous [^18F]-Fluoride solution (2.0 ml, 33.3 GBq/900 mCi) was purchased from P.E.T. Net® Pharmaceuticals in West Point Pa. and directly transferred to a Sep-Pak light QMA [The Sep-Pak light QMA cartridge was pre-conditioned sequentially with 5 ml of 0.5 M potassium bicarbonate, 5 ml of deionized water, and 5 ml of MeCN before use.] Upon completion of this transfer, the aqueous [^18F] fluoride was released from the QMA Sep-Pak by the sequential addition of potassium carbonate (15 mg/ml; 0.1 ml) followed by a mixture of potassium carbonate (30 mg/ml, 0.1 ml), 4,7,13,16,21,24-hexaoxa-1,10-diazabicyclo[8.8.8]hexacosane (15 mg, 0.04 mmol) and 1.2 ml of MeCN. The solvent was evaporated under a gentle stream of nitrogen at 90° C. and vacuum. Azeotropic drying was repeated twice with 1 ml portions of acetonitrile to generate the anhydrous K.2.2.2/K[^18F]F complex. […] The entire contents of the crude reaction mixture was then transferred, loaded and purified using reverse phase HPLC and the following conditions: HPLC Column: Luna C18 250×10 Solvent A: 0.1% TFA in DI water; solvent B: 0.1% TFA in acetonitrile at a flow rate of 4.6 ml/minute using isocratic method 32% B while the UV was monitored at 280 nm. […]"}, "PD-L1 [2]": {"biological_target": "T1, PD-L1 (Homo sapiens, UniProt Q9NZQ7)", "T1 sequence (Q9NZQ7 19-290)": "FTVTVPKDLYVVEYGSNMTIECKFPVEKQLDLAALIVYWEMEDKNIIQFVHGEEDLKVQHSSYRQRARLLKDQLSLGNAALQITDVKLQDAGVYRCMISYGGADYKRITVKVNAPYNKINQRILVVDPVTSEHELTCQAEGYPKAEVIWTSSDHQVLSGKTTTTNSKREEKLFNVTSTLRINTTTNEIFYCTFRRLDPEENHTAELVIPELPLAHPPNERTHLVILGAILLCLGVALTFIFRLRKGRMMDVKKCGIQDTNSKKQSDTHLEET", "experiment": "In vitro differentiation of PD-L1-positive from PD-L1-negative cells (cell-associated radioactivity, gamma counter)", "assay_type": "binding", "set-up": "PD-L1-positive L2987 human lung carcinoma cells or PD-L1-negative HT-29 human colorectal adenocarcinoma cells; endogenous in cells; host or cells: L2987 human lung carcinoma cells (HT-29 as PD-L1-negative control)", "details": "1 hour on ice", "description": "Portions of this solution were supplemented with either cold (unlabeled) […] or cold (unlabeled) […] (control) to a final concentration of 450 nM. […] After the incubation period, cell samples were centrifuged at 200×g and the supernatant was discarded. Cell pellets were resuspended in 1 mL PBS+0.5% BSA and the wash procedure repeated for a total of 3 washes. Following the final wash, cells were again centrifuged at 200×g and the supernatant was discarded. The radioactivity of the remaining cell pellets was then measured by gamma counter."}, "PD-L1 [3]": {"system": "PD-L1", "details": "cynomolgus monkeys", "description": "Cynomolgus male monkeys with a previously installed vascular access port (VAP) were anesthetized with 0.02 mg/kg atropine, 5 mg/kg Telazol and 0.01 mg/kg buprenorphine I.M. (all drawn into a single syringe). An i.v. catheter is then placed in the cephalic vessel for fluid administration during the imaging procedure to maintain hydration. […] Anesthesia was maintained with isoflurane and oxygen and I.V. fluids (LRS) were administered at a rate of 6 ml/kg/hr during the imaging procedure. As the axial field of view of the microPET® F220™ instrument is only 7.6 cm, images over 5 distinct bed positions were acquired to create a composite image of the animals from just above the heart through approximately the pelvis.\nFor each field of view, a 10 minute transmission image was first acquired using a ^57Co point source for the purpose of attenuation correction of the final PET images. […] Once images were acquired at each position (1 through 5), the imaging bed was moved back to bed position 1 and the process was repeated. Using this procedure, a total of 5 distinct images were acquired for each bed position over the duration of the imaging study.\nIndividual images were reconstructed using a filtered back projection (FBP) algorithm with attenuation correction using the collected transmission images and corrected for radioisotope decay."}, "PD-L1 [4]": {"biological_target": "T1, PD-L1", "experiment": "microPET imaging of mice bearing bilateral PD-L1(+) L2987 and PD-L1(−) HT-29 xenografts", "assay_type": "in vivo", "set-up": "introducing 1×10^6 PD-L1(+) L2987 human lung carcinoma cells; endogenous in cells; host or cells: L2987 human lung carcinoma xenografts grown subcutaneously in mice", "details": "co-injected with 3 mg/kg unlabeled A02 Adnectin, 1 hour 50 minutes - 2 h post injection", "text": "Mice bearing bilateral xenograft tumors were produced by introducing 1×10^6 PD-L1(+) L2987 human lung carcinoma cells and 1.5×10^6 PD-L1(−) HT-29 human colon carcinoma cells subcutaneously on opposite sides of the mouse. Once tumors reached approximately 300 mm^3 (approximately 2-3 weeks after cell implantation) animals were selected for imaging. For imaging, animals were placed under anesthesia with 2% isoflurane and tail vein catheters were installed. Mice were then placed into a custom animal holder with capacity for 4 animals, where they remained under anesthesia for the duration of the study. The animal holder was transferred to the microPET® F120™ scanner (Siemens Preclinical Solutions, Knoxville, Tenn.). […]\nFollowing the transmission scan, radiotracer solutions were administered via the previously installed tail vein catheters and a 2 hour emission image was acquired. […] Exact injected doses were calculated by taking direct measurement of the formulated dose and subtracting the radioactivity remaining in the syringe and the tail vein catheter.\nIn the final images, regions of interest (ROIs) were drawn around the tumor boundary using ASIPro software (Siemens Preclinical Solutions). Time-activity curves were calculated for each ROI to yield a quantitative view of radiotracer within the tumor volume over the course of the 2 hour emission image. […]"}, "PD-L1 [5]": {"biological_target": "T1, PD-L1", "experiment": "Ex vivo tissue biodistribution by gamma counter in xenograft-bearing mice", "set-up": "introducing 1×10^6 PD-L1(+) L2987 human lung carcinoma cells; endogenous in cells; host or cells: L2987 human lung carcinoma xenografts grown subcutaneously in mice", "description": "For some studies, animals were sacrificed via cervical dislocation immediately following imaging. Necropsy was then performed on the animals, and individual tissues were collected (blood, heart, lung, liver, spleen, kidney, muscle, stomach, bone, L2987 tumor, and HT-29 tumor) into pre-weighed tubes. All tissues were then weighed again to determine the weight of each tissue. The radioactivity in each tissue was then directly measured ex vivo using a Perkin-Elmer Wizard3 gamma counter. For all tissues, measured values in counts per minute (CPM) were normalized to the injected radioactive dose for the individual animals and corrected for radioactive decay."}}, "data": [{"molecule": "[N-]=[N+]=NCCOCCOCCOCCOc1cccnc1[18F]", "note": "[[^18F]-3-(2-(2-(2-(2-azidoethoxy)ethoxy)ethoxy)ethoxy)-2-fluoropyridine]", "values": [{"measurement": "stable in this media", "setting": "[1]", "result": "over 1 hour"}]}, {"molecule": "B1", "values": [{"measurement": "cell associated radioactivity in PD-L1-positive L2987 cells relative to PD-L1-negative HT-29 cells", "setting": "PD-L1 [2]; 300 nCi/200 μL tracer", "result": 44.6, "unit": "×"}, {"measurement": "notable radiotracer accumulation (tissues)", "setting": "PD-L1 [3]; PET", "result": "mainly in the kidneys, spleen, and bladder"}, {"measurement": "background levels / background accumulation in PET images", "setting": "PD-L1 [3]; approx. 1.5 mCi (approx. 0.015 mg/kg) via VAP", "result": "very low"}]}, {"molecule": "B2", "values": [{"measurement": "reduction in cell-associated ^18F-radiolabeled E01-4PEG-DBCO on co-incubation with cold adnectin", "setting": "PD-L1 [2]; 450 nM cold (unlabeled) adnectin", "result": 99.6, "unit": "%"}]}, {"molecule": "B3", "values": [{"measurement": "radiotracer uptake in PD-L1(+) L2987 xenografts relative to PD-L1(−) HT-29 xenografts, blocked", "setting": "PD-L1 [4]", "result": 1.04, "unit": "×"}, {"measurement": "tissue with higher uptake than the PD-L1(+) tumor", "setting": "PD-L1 [5]; ex vivo gamma counter", "result": "kidney"}, {"measurement": "uptake in PD-L1(+) L2987 xenografts compared to PD-L1(−) HT-29 xenografts, ex vivo", "setting": "PD-L1 [5]; necropsy immediately after imaging, gamma counter", "result": "clear differential uptake"}]}]}
